We go through one substance from article PMC2629542.

This assay deals with DraE R86G (E. coli). The assay can be described thus: SPR. For orientation: In SPR one partner is held on a chip, and binding of the other changes the refractive index at the surface.

Substance N-domain of CEA (domain or fragment) registered a fold decrease in affinity against DraE greater than 7 fold.
